The target of the assay is HER2 expressed on JIMT-1 cells (UniProt P04626). Description: flow cytometry on JIMT-1 cells, antibody at 100 nM, FITC secondary.

Take IgG control (antibody): the MFI is 12500.
